In assay [1] the target is AMS2b E2E1-I53-50A (hepatitis C virus, strain AMS2b). Put plainly: non-reducing SDS-PAGE; purified protein on a non-reducing gel; one band larger than 250 kDa, disulfide-bonded trimer.
The target of assay [2] is AMS0232 E2E1-I53-50A (hepatitis C virus, isolate AMS0232 (genotype 1a)). The assay is described as above.
Assay [3] has the same target. Put plainly: SEC; Strep-Tactin-purified E2E1-I53-50A alone on Superdex 200 Increase 10/300 GL or Superose 6 Increase 10/300 GL; TBS/5% glycerol; elutes as a trimer.
The target in assay [4] is H77 E2E1-I53-50A (hepatitis C virus, strain H77). Kind of assay: non-reducing SDS-PAGE; purified protein on a non-reducing gel; one band larger than 250 kDa, disulfide-bonded trimer.
Assay [5] concerns the target UKNP2.2.1 E2E1-I53-50A (hepatitis C virus, strain UKNP2.2.1 / UKNP2.1.1). The assay is described as above.
Assay [6] addresses UKNP4.1.1 E2E1-I53-50A (hepatitis C virus, strain UKNP4.1.1). Described as above.
The target of assay [7] is UKNP5.2.1 E2E1-I53-50A (hepatitis C virus, strain UKNP5.2.1). The assay is described as above.
Assay [8] concerns the target UKNP6.1.2 E2E1-I53-50A (hepatitis C virus, strain UKNP6.1.2). The description is as above.

In assay [1], AMS2b E2E1-I53-50A (complex) had a stoichiometry N of 3.
As for AMS0232 E2E1-I53-50A (complex), the stoichiometry N in assay [2] and in assay [3] was 3 each time.
Substance H77 E2E1-I53-50A (complex) gave a stoichiometry N in assay [4] of 3.
With UKNP2.2.1 E2E1-I53-50A, in assay [5], the stoichiometry N turned out to be 3.
As to UKNP4.1.1 E2E1-I53-50A (complex), the stoichiometry N in assay [6] was 3.
For the substance UKNP5.2.1 E2E1-I53-50A (complex), in assay [7], the stoichiometry N is 3.
Consider UKNP6.1.2 E2E1-I53-50A (complex), for which, in assay [8], the stoichiometry N turned out to be 3.
